The supplement of paper PMC9112550, “Optimization of the antimicrobial peptide Bac7 by deep mutational scanning” (BMC Biology, 2022)

Test system: Escherichia coli TOP10
Assay: shrunken log2 fold change of peptide-encoding DNA abundance (4.5 h post-induction vs induction); higher = less antimicrobial activity (less host growth inhibition)
Details: time post-induction: 4.5 h; library: site-saturation at positions 5, 18, 19, 20
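Also: peptides expressed intracellularly from a pBAD plasmid library in pooled LB shake-flask culture, induced with 0.3% L-arabinose, DNA abundance read by NGS, three biological replicates, DESeq2 with apeglm shrinkage.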

Sequence	shrunken log2 fold change
RRIRYRPPRLPRPRPRPDYYPRP	-0.00141
RRIRMRPPRLPRPRPRPQINPRP	-0.0723
RRIRGRPPRLPRPRPRPYCVPRP	-0.237
RRIRQRPPRLPRPRPRPAPVPRP	1.06
RRIRFRPPRLPRPRPRPHMMPRP	-0.283
RRIRKRPPRLPRPRPRPRGSPRP	0.319
RRIRGRPPRLPRPRPRPMSDPRP	0.34
RRIRPRPPRLPRPRPRPARCPRP	0.67
RRIRCRPPRLPRPRPRPQVHPRP	-0.233
RRIRYRPPRLPRPRPRPNRCPRP	0.00786
RRIRWRPPRLPRPRPRPMIEPRP	0.0215
RRIRNRPPRLPRPRPRPYDWPRP	0.0127
RRIRYRPPRLPRPRPRPMRDPRP	-0.151
RRIRQRPPRLPRPRPRPSLEPRP	0.0433
RRIRARPPRLPRPRPRPCAFPRP	0.303
RRIRGRPPRLPRPRPRPWACPRP	0.216
RRIRKRPPRLPRPRPRPAGRPRP	0.432
RRIRQRPPRLPRPRPRPQVSPRP	0.301
RRIRWRPPRLPRPRPRPQTTPRP	0.206
RRIRNRPPRLPRPRPRPVCIPRP	-0.215
RRIRDRPPRLPRPRPRPQITPRP	-0.0201
RRIRCRPPRLPRPRPRPLQGPRP	0.0488
RRIRARPPRLPRPRPRPKNFPRP	0.251
RRIRTRPPRLPRPRPRPPPRPRP	1.36
RRIRLRPPRLPRPRPRPFMMPRP	-0.449

Sequence	shrunken log2 fold change
RRIRVRPPRLPRPRPRPKSYPRP	-0.425
RRIRWRPPRLPRPRPRPYEFPRP	-0.00843
RRIRQRPPRLPRPRPRPLGGPRP	-0.12
RRIRMRPPRLPRPRPRPKHTPRP	1.93
RRIRGRPPRLPRPRPRPDQEPRP	1.05
RRIRQRPPRLPRPRPRPSMPPRP	-0.0542
RRIRRRPPRLPRPRPRPDYKPRP	-0.284
RRIRCRPPRLPRPRPRPMQQPRP	-0.036
RRIRCRPPRLPRPRPRPKHMPRP	-0.25
RRIRFRPPRLPRPRPRPWARPRP	-0.114
RRIRNRPPRLPRPRPRPFRGPRP	0.168
RRIRYRPPRLPRPRPRPPFNPRP	-0.309
RRIRNRPPRLPRPRPRPVPFPRP	0.041
RRIRARPPRLPRPRPRPMWCPRP	0.172
RRIRQRPPRLPRPRPRPKLYPRP	-0.0149
RRIRARPPRLPRPRPRPLPFPRP	-0.249
RRIRIRPPRLPRPRPRPFSPPRP	-0.267
RRIRFRPPRLPRPRPRPTSTPRP	-0.0598
RRIRWRPPRLPRPRPRPSDPPRP	0.00652
RRIRLRPPRLPRPRPRPASPPRP	0.0633
RRIRNRPPRLPRPRPRPFMEPRP	-0.167
RRIRPRPPRLPRPRPRPIPHPRP	-0.163
RRIRLRPPRLPRPRPRPETPPRP	0.178
RRIRDRPPRLPRPRPRPVIIPRP	-0.316
RRIRMRPPRLPRPRPRPYCLPRP	0.146

Sequence	shrunken log2 fold change
RRIRGRPPRLPRPRPRPFATPRP	2.68
RRIRPRPPRLPRPRPRPVLIPRP	-0.237
RRIRKRPPRLPRPRPRPVHCPRP	0.0295
RRIRTRPPRLPRPRPRPFCCPRP	-0.309
RRIRQRPPRLPRPRPRPHCVPRP	-0.0218
RRIRFRPPRLPRPRPRPTYMPRP	-0.0541
RRIRCRPPRLPRPRPRPTLQPRP	0.279
RRIRWRPPRLPRPRPRPFAQPRP	-0.0369
RRIRVRPPRLPRPRPRPGCWPRP	0.594
RRIRRRPPRLPRPRPRPGSQPRP	-0.0144
RRIRKRPPRLPRPRPRPKYSPRP	-0.13
RRIRSRPPRLPRPRPRPLPRPRP	0.741
RRIRCRPPRLPRPRPRPRFGPRP	0.316
RRIRRRPPRLPRPRPRPNLYPRP	-0.0246
RRIRTRPPRLPRPRPRPDQAPRP	-0.0986
RRIRLRPPRLPRPRPRPMWWPRP	1.19
RRIRFRPPRLPRPRPRPFRYPRP	-0.151
RRIRTRPPRLPRPRPRPLRDPRP	0.282
RRIRIRPPRLPRPRPRPSGDPRP	-0.742
RRIRTRPPRLPRPRPRPEYMPRP	-0.263
RRIRFRPPRLPRPRPRPEDGPRP	0.333
RRIRRRPPRLPRPRPRPNKKPRP	-0.272
RRIRTRPPRLPRPRPRPTLSPRP	0.106
RRIRRRPPRLPRPRPRPLDMPRP	-0.114
RRIRNRPPRLPRPRPRPFQHPRP	-0.00968

Sequence	shrunken log2 fold change
RRIRARPPRLPRPRPRPRMHPRP	0.324
RRIRRRPPRLPRPRPRPCTYPRP	-0.27
RRIRYRPPRLPRPRPRPGITPRP	-0.444
RRIRHRPPRLPRPRPRPYATPRP	-0.172
RRIRHRPPRLPRPRPRPNPQPRP	-0.00216
RRIRHRPPRLPRPRPRPPECPRP	0.331
RRIRFRPPRLPRPRPRPLFTPRP	-0.239
RRIRYRPPRLPRPRPRPLQQPRP	-0.25
RRIRLRPPRLPRPRPRPYEWPRP	-0.00151
RRIRTRPPRLPRPRPRPQPAPRP	0.0787
RRIRRRPPRLPRPRPRPCCMPRP	-0.18
RRIRERPPRLPRPRPRPHWDPRP	-0.00134
RRIRQRPPRLPRPRPRPVTKPRP	-0.0142
RRIRVRPPRLPRPRPRPDYKPRP	0.105
RRIRWRPPRLPRPRPRPESIPRP	0.2
RRIRPRPPRLPRPRPRPHPMPRP	-0.0882
RRIRERPPRLPRPRPRPYGQPRP	-0.315
RRIRMRPPRLPRPRPRPLVAPRP	1.16
RRIRIRPPRLPRPRPRPVNHPRP	-0.288
RRIRARPPRLPRPRPRPGSGPRP	0.576
RRIRVRPPRLPRPRPRPHSWPRP	0.0662
RRIRARPPRLPRPRPRPEPTPRP	0.832
RRIRFRPPRLPRPRPRPSMTPRP	-0.227
RRIRERPPRLPRPRPRPEHAPRP	-0.0115
RRIRLRPPRLPRPRPRPPNCPRP	-0.0466

Sequence	shrunken log2 fold change
RRIRSRPPRLPRPRPRPHPWPRP	-0.0172
RRIRRRPPRLPRPRPRPCFHPRP	-0.00606
RRIRSRPPRLPRPRPRPGWYPRP	-0.118
RRIRARPPRLPRPRPRPRLCPRP	0.574
RRIRTRPPRLPRPRPRPEDNPRP	0.168
RRIRIRPPRLPRPRPRPWQAPRP	-0.115
RRIRYRPPRLPRPRPRPPPRPRP	1.5
RRIRQRPPRLPRPRPRPFIQPRP	-0.321
RRIRNRPPRLPRPRPRPSLCPRP	0.0773
RRIRGRPPRLPRPRPRPDSCPRP	0.426
RRIRTRPPRLPRPRPRPWNNPRP	-0.256
RRIRDRPPRLPRPRPRPGIIPRP	-0.171
RRIRARPPRLPRPRPRPFWYPRP	-0.181
RRIRCRPPRLPRPRPRPNGDPRP	0.105
RRIRDRPPRLPRPRPRPRTQPRP	0.168
RRIRNRPPRLPRPRPRPMYAPRP	-0.192
RRIRKRPPRLPRPRPRPCPNPRP	-0.0875
RRIRNRPPRLPRPRPRPYIGPRP	0.0261
RRIRLRPPRLPRPRPRPEFQPRP	-0.0134
RRIRNRPPRLPRPRPRPQKSPRP	-0.101
RRIRPRPPRLPRPRPRPKLVPRP	0.0371
RRIRQRPPRLPRPRPRPKKEPRP	0.00476
RRIRKRPPRLPRPRPRPEAYPRP	0.0226
RRIRTRPPRLPRPRPRPFKAPRP	0.0168
RRIRARPPRLPRPRPRPTSLPRP	0.225

Sequence	shrunken log2 fold change
RRIRKRPPRLPRPRPRPKWRPRP	0.887
RRIRQRPPRLPRPRPRPVHPPRP	0.211
RRIRWRPPRLPRPRPRPDTTPRP	0.255
RRIRIRPPRLPRPRPRPVPPPRP	0.144
RRIRMRPPRLPRPRPRPEILPRP	0.121
RRIRYRPPRLPRPRPRPQIHPRP	-1.2
RRIRDRPPRLPRPRPRPYLMPRP	-0.187
RRIRLRPPRLPRPRPRPLDRPRP	0.25
RRIRKRPPRLPRPRPRPMDFPRP	-0.0018
RRIRFRPPRLPRPRPRPARLPRP	0.175
RRIRARPPRLPRPRPRPSLKPRP	-0.0764
RRIRHRPPRLPRPRPRPKIWPRP	-0.0285
RRIRERPPRLPRPRPRPAIEPRP	-0.136
RRIRCRPPRLPRPRPRPWHSPRP	0.112
RRIRIRPPRLPRPRPRPQFYPRP	-0.945
RRIRHRPPRLPRPRPRPITAPRP	-0.303
RRIRWRPPRLPRPRPRPIISPRP	-0.14
RRIRSRPPRLPRPRPRPNVEPRP	0.814
RRIRLRPPRLPRPRPRPVHSPRP	0.00898
RRIRFRPPRLPRPRPRPMWNPRP	-0.363
RRIRERPPRLPRPRPRPNPAPRP	0.0424
RRIRFRPPRLPRPRPRPTFWPRP	-0.0559
RRIRFRPPRLPRPRPRPNWDPRP	-0.269
RRIRQRPPRLPRPRPRPFPAPRP	-0.0923
RRIRKRPPRLPRPRPRPEGCPRP	0.959
